B1: Nb40: LRRK2-specific Nanobody, SEQ ID NO: 4 (protein)
VHH: MAQVQLVESGGGLVQPGGSLRLSCVASGTIYAINRMGWYRQAPGKQRELVALITLGGGTNYGDSVKGRFTISRDNAKNTGYLQMNSLKPEDTAVYYCKVESSGYTDVFWGQGTQVTVSS
modifications: Nanobody CA14135
B2: Nb22 (CA13611)-GFP fusion (VHH)
VHH: QVQLVESGGGLVQAGGSLRLSCAASGRTFSSYTMGWFRQAPGKEREFVAAIRWSGGSTYYADSVKGRFTISRDNAKNTVYLQMNSLKPEDTAVYYCAASDRGGFIATSGGWMDYWGKGTQVTVSS
notes: expressed in cells as intrabody; also called GFP-Nb22; fluobody Nb22; not shown: enhanced GFP fused to the C-terminus of the Nb (pEGFP-N1)
B3: Nb40 (CA14135)-GFP fusion (VHH)
VHH: QVQLVESGGGLVQPGGSLRLSCVASGTIYAINRMGWYRQAPGKQRELVALITLGGGTNYGDSVKGRFTISRDNAKNTGYLQMNSLKPEDTAVYYCKVESSGYTDVFWGQGTQVTVSS
notes: expressed in cells as intrabody; also called GFP-Nb40; fluobody Nb40; not shown: enhanced GFP fused to the C-terminus of the Nb (pEGFP-N1)
B4: Nb23 (CA13612)-GFP fusion (VHH)
VHH: QVQLVESGGGLVQAGGSLRLSCAASGRTFSRYTMGWFRQAPGKDREFVARITTSGAVTTYADSAKGRFTISRDNAKNTVYLQMNTLKPEDTAVYYCAAGQGQLSSQSRFVDYWGQGTQVTVSS
notes: expressed in cells as intrabody; also called GFP-Nb23; fluobody Nb23; not shown: enhanced GFP fused to the C-terminus of the Nb (pEGFP-N1)
B5: Nb38 (CA14133)-GFP fusion (VHH)
VHH: QVQLVESGGGLVQPGGSLRLSCAASGSIRSIATSAWYRQPPGKQRELVAGISSGTTTNYADSVKGRFTISRDNAKNTVYLQMNSLKPEDTAVYYCHAWISGTWISGQGTQVTVSS
notes: expressed in cells as intrabody; also called GFP-Nb38; fluobody Nb38; not shown: enhanced GFP fused to the C-terminus of the Nb (pEGFP-N1)
B6: Nb17: LRRK2-specific Nanobody, SEQ ID NO: 5 (protein)
VHH: MAQVQLVESGGGLVQPGGSLRLSCAASGSNIGYMAWYRQAPGSQRELVARIASGGSANYADSVKGRFTISRDNVKNTVYLHMNSLKPVDTAVYYCHADAWYNSRWSDYWGQGTQVTVSS
modifications: Nanobody CA13606

Key:
LRRK2(G2019S) = molecular target: T1, LRRK2(G2019S) (Homo sapiens, UniProt Q5S007, G2019S/M2397T/R50H); assay: In cellulo phospho-Rab / LRRK2 autophosphorylation assay in HEK293T cells; assay type: cell-based; design: key to Functional Group (see FIG. 2d): Group 1: group 1: Nbs that inhibit both LRRK2 autophosphorylation and Rab10 phosphorylation in cells; Group 2: group 2: Nbs that inhibit only Rab10 phosphorylation; Group 3: group 3: Nbs that activate LRRK2 kinase activity; Group 4: group 4: Nbs that have no consistent/clear effect on LRRK2 kinase activity; details: for LRRK2 autophosphorylation at position S1292 / influence on LRRK2 kinase activity compared to the controls / Rab10 phosphorylation at position T72: HEK 293T cells co-expressing LRRK2(G2019S), Rab29 and Nb-GFP; for influence on LRRK2 kinase activity compared to the controls: Western blot; for Functional Group (see FIG. 2d): classification by effect on in cellulo LRRK2(G2019S) kinase activity; for Rab10 phosphorylation at position T72: endogenous Rab10
T1 construct: SF tag (FLAG + Twin-Strep); expressed in transfected cells; host or cells: HEK 293T
Method in brief: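 Cells co-transfected (PEI) with SF-tagged LRRK2(G2019S), FLAG-HA Rab29 and Nb-GFP fusions, lysed after 48 hrs. Western blot read LRRK2 pS1292 and endogenous Rab10 pT72 with site-specific antibodies, referenced to total LRRK2 and Rab10; ECL chemiluminescence on film.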

mScarlet-LRRK2 = molecular target: T2, mScarlet-LRRK2 (Homo sapiens, UniProt Q5S007, M2397T/R50H); assay: Confocal microscopy of LRRK2 microtubule localization in HEK293 cells; assay type: cell-based; details: HEK293 cells co-transfected with mScarlet-LRRK2 and GFP-Nb, treated with 1 μM MLi-2
T2 construct: expressed in transfected cells; host or cells: HEK293
Text: HEK 293 cells were co-transfected with the indicated GFP-Nbs and mScarlet-LRRK2. […] Scale bar 5 μm.
FIG. 6. […] Scale bar 5 μm.
The binding of LRRK2 to microtubules subsequently reduces the kinesin—and dynein-mediated transport along microtubules.
Recent structural information has linked LRRK2 microtubule relocalization to the conformation of the kinase domain, with a closed conformation favoring LRRK2 binding to microtubules. As a consequence, the commonly used ATP-competitive type I LRRK2 inhibitors trigger this effect. In addition, it was shown before that the WD40 domain is indispensable for LRRK2-microtubule association.
A HEK293 cell line was cultured in complete media (high-glucose Dulbecco's modified Eagle's medium, 10% fetal bovine serum and Penicillin-Streptomycin-Glutamine (Gibco)). Cells were seeded on 8-well p-Slide(Ibidi) and transfected at a confluency of 50-70% with GFP-Nb and mScarlet-LRRK2 constructs, using JetPEI reagent (Polyplus transfection). […] Data acquisition was done with a ×100 oil-immersion objective with a Zeiss LSM800 confocal laser scanning microscope. Image analysis of z-scan was done using the Zeiss microscope software ZEN.

endogenous LRRK2 = molecular target: T3, endogenous LRRK2 (Mus musculus, UniProt Q5S006); assay: Colocalization of GFP-Nbs with endogenous LRRK2 on zymosan-containing phagosomes in RAW264.7 cells; assay type: cell-based; details: RAW264.7 cells transfected with GFP-Nbs, zymosan 30 mins, fixed cells
T3 construct: endogenous in cells; host or cells: RAW264.7
Method: RAW264.7 cells were transfected with GFP-fused Nbs and treated with Zymosan for 30 mins. Recruitment of LRRK2 and Nbs to the phagosomes was analyzed by immunofluorescence. FIG. 16A, images for Nb38, Nb22, Nb23, Nb40, No Nb, or Irrelevant (IRR) Nb treatments; FIG. 16B, images for Nb36, Nb42, Nb17, Nb39, Nb1, and Nb6 treatments. Scale bar=10 μm.
(§1) To test whether Nbs can trace and visualize endogenous LRRK2 in fixed cells, we generated green fluorescent protein (GFP)-Nb fusions (fluobodies) as described before. Recently, it was shown that LRRK2 is recruited to phagosomes upon induction of phagocytosis in immune cells. Therefore, RAW264.7 cells were transfected with these fluobodies and treated with killed yeast bioparticles “zymosan” to induce phagocytosis.
(§2) RAW264.7 cells (ATCC® SC-6003™) were transfected with peGFP-Nb constructs using JetOPTIMUS (Polyplus transfection) for 24 hrs and then stimulated with Zymosan particles (Sigma Aldrich) for 30 mins ([…]). Immunostaining for LRRK2 was performed as reported before. Briefly, cells fixed with 4% (w/v) paraformaldehyde for 30 min, followed by treatment with 100% EtOH at −20° C. Sampled were permeabilized with PBS/0.5% Triton X-100 and blocked with 3% BSA. Primary antibodies (rabbit anti-LRRK2, c41-2, Abcam and mouse anti-GFP, G6539, Sigma Aldrich) were diluted in PBS containing 3% BSA and 0.5% Triton X-100 and incubated overnight at 4° C. After three 5-min washes with PBS, secondary fluorescently labeled antibodies (anti-rabbit-Alexa fluor 568 and anti-mouse-Alexa fluor 488, Invitrogen) were added in a similar manner to primary antibodies and incubated for 1 hour at room temperature. Cells were washed twice with 1×PBS and mounted with Fluroshield antifade reagent with DAPI (SigmaAldrich). Images were acquired on Zeiss LSM800 confocal laser scanning microscope. Image analysis of z-scan was done using the Zeiss microscope software ZEN.

[1] = molecular target: T4, endogenous mouse LRRK2 (RAW264.7 cells) (mouse, UniProt Q5S006 1-2527); assay: immunofluorescence colocalisation of GFP-Nb and LRRK2 in RAW264.7 cells
T4 construct: also called endogenous LRRK2
Text: as §1
as §2, with “After three 5-min washes with PBS, secondary fluorescently labeled antibodies (anti-rabbit-Alexa fluor 568 and anti-mouse-Alexa fluor 488, Invitrogen) were added in a similar manner to primary antibodies and incubated for 1 hour at room temperature.” left out

T4 sequence (Q5S006 whole entry): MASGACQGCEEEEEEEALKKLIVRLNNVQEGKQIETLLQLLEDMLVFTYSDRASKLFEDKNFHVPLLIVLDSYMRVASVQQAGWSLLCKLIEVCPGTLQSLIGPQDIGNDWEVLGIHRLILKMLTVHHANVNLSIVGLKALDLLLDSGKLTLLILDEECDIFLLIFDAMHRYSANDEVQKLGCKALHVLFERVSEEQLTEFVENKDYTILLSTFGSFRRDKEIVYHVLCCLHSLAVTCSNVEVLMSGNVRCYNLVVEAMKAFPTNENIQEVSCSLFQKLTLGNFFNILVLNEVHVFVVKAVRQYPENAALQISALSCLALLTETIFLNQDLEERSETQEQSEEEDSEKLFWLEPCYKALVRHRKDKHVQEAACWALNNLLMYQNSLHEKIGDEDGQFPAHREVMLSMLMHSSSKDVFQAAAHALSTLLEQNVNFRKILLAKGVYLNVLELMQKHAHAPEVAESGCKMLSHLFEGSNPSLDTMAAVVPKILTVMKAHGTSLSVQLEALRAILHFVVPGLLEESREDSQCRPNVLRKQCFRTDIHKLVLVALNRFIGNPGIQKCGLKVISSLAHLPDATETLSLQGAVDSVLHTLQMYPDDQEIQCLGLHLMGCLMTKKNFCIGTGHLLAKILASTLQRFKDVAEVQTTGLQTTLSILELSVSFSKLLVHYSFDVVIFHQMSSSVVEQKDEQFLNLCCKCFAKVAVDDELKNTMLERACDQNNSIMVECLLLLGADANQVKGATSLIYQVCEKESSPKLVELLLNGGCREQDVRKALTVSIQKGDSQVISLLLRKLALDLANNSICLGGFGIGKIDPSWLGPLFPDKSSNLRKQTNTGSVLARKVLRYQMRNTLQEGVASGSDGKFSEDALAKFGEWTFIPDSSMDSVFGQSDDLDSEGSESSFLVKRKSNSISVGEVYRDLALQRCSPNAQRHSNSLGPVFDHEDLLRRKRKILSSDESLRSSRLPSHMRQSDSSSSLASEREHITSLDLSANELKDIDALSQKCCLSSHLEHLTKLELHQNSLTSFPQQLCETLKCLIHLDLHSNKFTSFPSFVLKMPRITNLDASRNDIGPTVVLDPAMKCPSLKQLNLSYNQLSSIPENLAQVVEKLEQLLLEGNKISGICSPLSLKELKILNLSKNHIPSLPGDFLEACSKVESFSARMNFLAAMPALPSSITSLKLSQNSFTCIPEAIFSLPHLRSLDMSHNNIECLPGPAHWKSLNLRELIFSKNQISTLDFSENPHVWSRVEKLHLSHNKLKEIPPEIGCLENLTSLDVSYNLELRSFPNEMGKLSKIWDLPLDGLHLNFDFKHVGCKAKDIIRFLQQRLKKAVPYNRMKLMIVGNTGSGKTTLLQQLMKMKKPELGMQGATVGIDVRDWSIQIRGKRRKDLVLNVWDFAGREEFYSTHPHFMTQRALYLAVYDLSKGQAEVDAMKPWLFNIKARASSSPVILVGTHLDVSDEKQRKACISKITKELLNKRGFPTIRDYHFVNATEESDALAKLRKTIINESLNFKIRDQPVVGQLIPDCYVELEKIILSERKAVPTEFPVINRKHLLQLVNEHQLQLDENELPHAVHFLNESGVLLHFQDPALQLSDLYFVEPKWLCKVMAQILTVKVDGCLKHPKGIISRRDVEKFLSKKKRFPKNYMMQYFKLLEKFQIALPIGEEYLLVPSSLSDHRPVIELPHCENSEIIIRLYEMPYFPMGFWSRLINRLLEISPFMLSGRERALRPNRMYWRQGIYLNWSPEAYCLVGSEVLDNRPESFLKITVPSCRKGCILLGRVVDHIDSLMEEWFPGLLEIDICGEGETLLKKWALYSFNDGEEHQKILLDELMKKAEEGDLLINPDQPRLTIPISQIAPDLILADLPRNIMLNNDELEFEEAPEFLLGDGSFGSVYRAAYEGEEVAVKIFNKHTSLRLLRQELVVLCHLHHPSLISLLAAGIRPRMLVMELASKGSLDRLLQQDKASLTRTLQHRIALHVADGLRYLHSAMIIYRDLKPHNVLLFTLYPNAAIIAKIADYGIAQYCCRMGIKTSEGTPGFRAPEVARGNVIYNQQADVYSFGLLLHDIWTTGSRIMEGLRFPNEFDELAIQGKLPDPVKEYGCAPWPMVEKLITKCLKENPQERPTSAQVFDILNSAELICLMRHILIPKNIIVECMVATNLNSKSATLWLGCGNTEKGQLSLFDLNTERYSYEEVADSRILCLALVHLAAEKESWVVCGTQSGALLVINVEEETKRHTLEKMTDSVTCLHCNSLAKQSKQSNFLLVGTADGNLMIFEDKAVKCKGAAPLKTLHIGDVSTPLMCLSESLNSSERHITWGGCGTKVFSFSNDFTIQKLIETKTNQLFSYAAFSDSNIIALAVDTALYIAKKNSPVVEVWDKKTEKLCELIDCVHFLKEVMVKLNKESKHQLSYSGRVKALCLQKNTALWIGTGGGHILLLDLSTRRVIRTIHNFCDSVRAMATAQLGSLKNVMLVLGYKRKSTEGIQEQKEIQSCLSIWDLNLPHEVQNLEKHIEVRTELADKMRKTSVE
T1 sequence (Q5S007 whole entry R50H/G2019S/M2397T): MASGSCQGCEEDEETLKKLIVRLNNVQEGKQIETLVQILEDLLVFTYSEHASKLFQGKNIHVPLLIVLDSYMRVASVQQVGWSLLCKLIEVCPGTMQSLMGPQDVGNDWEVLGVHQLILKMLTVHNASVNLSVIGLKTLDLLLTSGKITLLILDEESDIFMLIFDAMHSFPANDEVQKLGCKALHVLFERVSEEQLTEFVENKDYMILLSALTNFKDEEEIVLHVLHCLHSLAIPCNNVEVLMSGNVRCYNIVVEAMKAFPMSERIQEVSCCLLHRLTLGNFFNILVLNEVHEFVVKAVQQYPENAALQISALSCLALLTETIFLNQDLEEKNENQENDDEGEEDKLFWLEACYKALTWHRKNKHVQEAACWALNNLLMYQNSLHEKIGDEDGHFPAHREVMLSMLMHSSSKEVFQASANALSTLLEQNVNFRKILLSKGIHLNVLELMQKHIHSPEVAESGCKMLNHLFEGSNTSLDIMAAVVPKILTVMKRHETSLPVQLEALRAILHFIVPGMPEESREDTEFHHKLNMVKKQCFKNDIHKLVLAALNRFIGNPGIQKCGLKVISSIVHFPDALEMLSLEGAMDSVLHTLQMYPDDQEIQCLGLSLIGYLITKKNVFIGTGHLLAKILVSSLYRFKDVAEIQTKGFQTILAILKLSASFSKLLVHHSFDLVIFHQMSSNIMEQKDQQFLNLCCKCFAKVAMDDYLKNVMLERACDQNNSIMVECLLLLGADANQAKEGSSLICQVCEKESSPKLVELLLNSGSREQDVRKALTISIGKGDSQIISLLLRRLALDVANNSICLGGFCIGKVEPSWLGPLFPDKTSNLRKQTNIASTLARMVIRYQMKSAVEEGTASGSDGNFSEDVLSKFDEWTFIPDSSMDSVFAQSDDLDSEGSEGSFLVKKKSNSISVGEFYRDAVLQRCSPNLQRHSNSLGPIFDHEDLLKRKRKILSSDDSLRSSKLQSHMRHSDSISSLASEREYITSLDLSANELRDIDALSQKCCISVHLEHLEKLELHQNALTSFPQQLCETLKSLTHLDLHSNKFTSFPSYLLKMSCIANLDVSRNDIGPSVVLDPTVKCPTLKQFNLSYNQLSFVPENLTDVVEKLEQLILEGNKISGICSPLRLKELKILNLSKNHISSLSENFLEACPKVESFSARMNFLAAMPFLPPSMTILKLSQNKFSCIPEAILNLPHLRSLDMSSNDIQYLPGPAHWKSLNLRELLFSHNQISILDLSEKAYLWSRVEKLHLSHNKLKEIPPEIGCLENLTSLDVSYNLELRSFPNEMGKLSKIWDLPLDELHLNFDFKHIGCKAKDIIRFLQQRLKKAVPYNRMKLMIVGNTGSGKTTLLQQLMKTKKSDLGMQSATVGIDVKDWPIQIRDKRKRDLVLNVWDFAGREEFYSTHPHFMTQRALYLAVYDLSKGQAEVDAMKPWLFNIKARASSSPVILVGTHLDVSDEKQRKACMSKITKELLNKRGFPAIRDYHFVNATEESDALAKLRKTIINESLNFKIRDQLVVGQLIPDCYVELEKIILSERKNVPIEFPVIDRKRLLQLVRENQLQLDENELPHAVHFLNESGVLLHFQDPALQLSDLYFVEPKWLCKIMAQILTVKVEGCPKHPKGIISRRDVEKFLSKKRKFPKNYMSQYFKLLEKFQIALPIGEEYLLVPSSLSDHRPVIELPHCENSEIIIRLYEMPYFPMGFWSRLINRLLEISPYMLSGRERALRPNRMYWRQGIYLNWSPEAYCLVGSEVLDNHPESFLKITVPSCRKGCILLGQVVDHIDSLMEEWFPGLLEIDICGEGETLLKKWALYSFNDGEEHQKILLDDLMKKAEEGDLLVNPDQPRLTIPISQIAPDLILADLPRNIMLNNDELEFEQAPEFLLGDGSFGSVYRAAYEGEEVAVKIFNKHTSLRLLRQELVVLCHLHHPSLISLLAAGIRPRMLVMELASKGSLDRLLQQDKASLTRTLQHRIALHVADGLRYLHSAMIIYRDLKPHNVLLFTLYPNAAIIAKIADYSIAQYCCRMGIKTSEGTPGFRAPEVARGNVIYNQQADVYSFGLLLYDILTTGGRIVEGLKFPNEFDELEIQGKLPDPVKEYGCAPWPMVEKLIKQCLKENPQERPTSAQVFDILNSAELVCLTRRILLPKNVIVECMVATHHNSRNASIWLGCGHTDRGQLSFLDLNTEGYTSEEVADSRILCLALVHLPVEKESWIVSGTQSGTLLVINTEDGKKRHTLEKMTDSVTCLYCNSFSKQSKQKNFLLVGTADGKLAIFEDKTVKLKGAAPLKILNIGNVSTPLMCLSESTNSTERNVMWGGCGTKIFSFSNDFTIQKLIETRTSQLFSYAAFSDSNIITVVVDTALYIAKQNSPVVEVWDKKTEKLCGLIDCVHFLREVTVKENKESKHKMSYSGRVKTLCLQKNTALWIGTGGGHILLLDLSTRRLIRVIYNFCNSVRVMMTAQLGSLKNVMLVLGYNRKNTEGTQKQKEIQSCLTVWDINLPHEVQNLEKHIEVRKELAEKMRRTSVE
T3 sequence (Q5S006 whole entry): as the sequence (Q5S006 whole entry) above
T2 sequence (Q5S007 whole entry R50H/M2397T): as the sequence (Q5S007 whole entry R50H/G2019S/M2397T) above, with S2019G counted along it

| Molecule | LRRK2 autophosphorylation at position S1292 (LRRK2(G2019S)) | influence on LRRK2 kinase activity compared to the controls (LRRK2(G2019S)) | Functional Group (see FIG. 2d) (LRRK2(G2019S)) | Rab10 phosphorylation at position T72 (LRRK2(G2019S)) | effect on MLi-2-induced recruitment of LRRK2 to microtubules (mScarlet-LRRK2) | colocalization with endogenous LRRK2 on phagosomes (endogenous LRRK2) | binding result [1] |
| --- | --- | --- | --- | --- | --- | --- | --- |
| B1 | inhibiting S1292 phosphorylation at a lesser extent | strongly decreased LRRK2 autophosphorylation and/or Rab10 phosphorylation | Group 2 | inhibit Rab10 phosphorylation | rescuing effect is most prominent | clearly colocalized with LRRK2 on zymosan-containing phagosomes |  |
| B2 |  |  |  |  |  |  | binds |
| B3 |  |  |  |  |  |  | binds |
| B4 |  |  |  |  |  |  | binds |
| B5 |  |  |  |  |  |  | binds |
| B6 | inhibiting S1292 phosphorylation at a lesser extent | strongly decreased LRRK2 autophosphorylation and/or Rab10 phosphorylation | Group 2 | inhibit Rab10 phosphorylation | rescuing effect is most prominent | LRRK2 recruitment to phagosomes was slightly detectable |  |
